Source: patent publication US20250144213A1 (UTC THERAPEUTICS SHANGHAI, published 2025)

T1: CD123-Fc recombinant protein (human, UniProt P26951 19-305)
T1 construct: Soluble staining reagent; also called CD123-Fc protein; not shown: Fc part
T1 sequence (looked up): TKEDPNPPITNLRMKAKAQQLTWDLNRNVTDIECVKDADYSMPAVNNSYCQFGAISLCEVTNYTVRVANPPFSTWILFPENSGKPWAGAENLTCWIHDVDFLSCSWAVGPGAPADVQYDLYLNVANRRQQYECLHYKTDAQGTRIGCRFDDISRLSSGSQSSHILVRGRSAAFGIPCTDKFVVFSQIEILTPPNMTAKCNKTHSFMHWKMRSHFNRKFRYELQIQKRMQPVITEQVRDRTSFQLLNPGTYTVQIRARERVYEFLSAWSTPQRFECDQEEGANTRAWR

T2: BCMA-Fc recombinant protein (human, UniProt Q02223 1-54)
T2 construct: Soluble staining reagent, 5 µg/ml; not shown: Fc part
T2 sequence (looked up): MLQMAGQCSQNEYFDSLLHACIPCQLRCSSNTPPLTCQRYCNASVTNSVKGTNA


Key:
[1] = biological target: T1, CD123-Fc recombinant protein; test: FACS staining of CAR-T cells with CD123-Fc recombinant protein (FIG. 28)
[2] = biological target: T2, BCMA-Fc recombinant protein; test: flow cytometry: lentivirally transduced CAR-T cells stained with 5 µg/ml BCMA-Fc, detected with anti-human IgG Fc (FIG. 17B)

| Binder | binding result [1] | binding result [2] |
| --- | --- | --- |
| anti-CD123 scFv-C18 (scFv, also called C18 scFv) scFv: QSALTQPASVSGSPGQSITISCTGTSSDVGGYNYVSWYQQHPGKAPKLMIYDVSNRPSGVSNRFSGSKSGNTASLTISGLQAEDEADYYCSSYTSSSTLFVFGTGTELTVLGGGGSGGGGSGGGGSQVQLQESGPGLVKPSQTLSLTCTVSGGSISSGDYYWSWIRQSPGKGLEWIGYIHSTGTTYYNPSLKSRLTISLDTSKNQFSLKLNSVTAADTAVYYCARGGVGTIFNYWGQGTLVTVSS | binds |  |
| anti-CD123 scFv-C15 (scFv, also called C15 scFv) scFv: DIQLTQSPSTLSASVGDRVTISCRASQSISSWLAWYQHKPGKAPKLLIYKTSALEDGVPSRFSGSGSGTEFTLTISSLQPDDFATYFCLHYGSYTFGQGTKVDIKGGGGSGGGGSGGGGSEVQLVESGGGLVNPGGSLRLSCEASGFTFSDYYISWIRQAPGKGLEWISYISGSSTYTDFADSVKGRFTISRDNAKNTVFLQMNSLRAEDTAVYYCARDRRGRFDPWGQGTLVTVSS | binds |  |
| anti-CD123 scFv-C26 (scFv, also called C26 scFv) scFv: QSVLTQPPSASGTPGQRVTISCSGSRSNIGSNTVSWYQQFPGTAPKLLIYLNNQRPSGVPDRFSGSKSGTSASLAISGLQSEDEAEYYCATWDDDLNGVFGGGTKLTVLGGGGSGGGGSGGGGSEVQLVESGGGLVQPGGSLRLSCAASGFTLSNFEMNWVRQAPGRGLEWVSYISATTSATSYADSVKGRFTISRDNAKNSLYLQMNSLRAEDTAVYYCARVRDGYNFGYYYYYMDVWGKGTTVTVSS | binds |  |
| anti-BCMA scFv BCMA34 (scFv, also called BCMA34 scFv; BCMA34 CAR) scFv: QPGLTQPPSVSKGLRQTATLTCTGNSNNVGNQGAAWLQQHQGHPPKLLSYRNNNRPSGISERFSASRSGNTASLTITGLQPEDEADYYCSAWDSSLSARVFGGGTKLTVLGGGGSGGGGSGGGGSQVQLVQSGAEVKKPGASVKVSCKTSGYTFSNPFVHWVRQAPGQGLEWVGIINLSGGDTLYAQKFQGGVTMTRDTSTNTAYMELTSLTFEDTAVYYCARDQAGFGDSAYWGQGTLVTVSS |  | binds |
| anti-CD123 scFv-C23 (scFv, also called C23 scFv) scFv: DILMTQSPSSLSASVGDRVTITCQASQDISNYLNWYQQKPGKAPKLLIYDASNLETGVPSRFSGSGSGTGFSFTISSLQPEDFATYYCQQYGNLPLTFGGGTKLEIKGGGGSGGGGSGGGGSQVQLVQSGAEVKKPGASVKVSCKASGYTFTSYGISWVRQAPGQGLEWMGWISAYNGNTNYAQKLQGRVTMTTDTSTSTAYMELRSLRSDDTAVYYCARDRIAAAEVYYYYGMDVWGQGTTVTVSS | binds |  |
| anti-CD123 scFv-C16 (scFv, also called C16 scFv) scFv: QSVVTQPPSASGTPGQRVTISCSGSSSNIEGNTVSWYQQFPGAAPKLLIYSNSYRASGVPDRFSGSKSGTSASLAISELQSEDEADYYCSAWDDSLNGPVFGGGTELTVLGGGGSGGGGSGGGGSQVQLQESGGGLVQPGGSLRLSCAASGFTFSSYSMNWVRQAPGKGLEWVSYISSSSSTIYYADSVKGRFTISRDNAKNSLYLQMNSLRAEDTAVYYCARDIYGDWDYYYYGMDVWGQGTTVTVSS | binds |  |
| anti-BCMA scFv BCMA33 (scFv, also called BCMA33 scFv; BCMA33 CAR) scFv: QSALTQPPSASGSPGQSVTISCTGTSSDVGGYNYVSWYQQHPGKAPKLMIYEVSKRPSGVPDRFSGSKSGNTASLTVSGLQAEDEADYFCSSYAGSNNFVVFGGGTKLTVLGGGGSGGGGSGGGGSEVQLVESGGGLVQPGRSLRLSCAASGFTFDDYAMHWVRQAPGKGLEWVSGISWNSGSIGYADSVKGRFTISRDNAKNSLYLQMNSLRAEDTALYYCAKVGASAALGAFDIWGQGTMVTVSS |  | binds |
| anti-CD123 scFv-C34 (scFv, also called C34 scFv) scFv: QSALTQPPSASGSPGQSVTISCTGTRSDVGAYNYVSWYQHHPGKAPKLMLYDVSKRPSGVSDRFSGSKSGNTASLTVSGLQSEDEANYYCSSYAGSGKYVFGSGTELTVLGGGGSGGGGSGGGGSEVHLVESGGGLVKPGGSLRLSCAASGFTFSDTWMSWVRQAPGKGLEWVGRIKSKTDGGTTNYAAPVKGRFTISRDDSKTTLFLQMNSLKTEDTAVYYCTGGDYPLFAYWGQGALVTVSS | binds |  |
| anti-CD123 scFv-C13 (scFv, also called C13 scFv) scFv: DVVMTQTPLSLPVTLGQPASISCRSSQGLVFSDGVTYLNWFQQRPGQSPRRLIYKVSNRDSGVPDRFSGSGSGTDFTLKISRVEAEDVGIYYCMQGTHWPHTFGQGTKLEIKGGGGSGGGGSGGGGSEVQLVESGGGLVKPGGSLRLSCAASGFTFSSYSMNWVRQAPGKGLEWVAFISHDASKKFYADSVKGRFTLSRDNSKNTLYLEMNSLGAEDTALYYCGRDRNWGFSDFWGQGTLVTVSS | binds |  |
| anti-CD123 scFv-C27 (scFv, also called C27 scFv) scFv: EIVLTQSPGTVSLSPGERATLSCRASQRVSATYLAWYQQKPGQAPRLLMYGGSRRATGIPDRFSGSGSGTDFTLTIRRLEPEDSAVYYCQQYGSSPLTFGGGTKLEIKGGGGSGGGGSGGGGSQVQLVQSGSELKKPGASVKVSCKASGYTFTSYGISWVRQAPGQGLEWMGWISAYNGNTNYAQKLQGRVTMTTDTSTSTAYMELRSLRSDDTAVYYCARDPYDDYGGNSRDEEDAFDIWGQGTTVTVSS | binds |  |
| anti-CD123 scFv-C21 (scFv, also called C21 scFv) scFv: QSVLTQPPSASGTPGQRVTISCSGSSSNVGGNPVYWYRQVPTAAPKLLVYGHNQRPPRDPDRFSGSKSGTSASLAISGLRSEDEADYYCAAWDDSLSGWVFGGGTELTVLGGGGSGGGGSGGGGSEVQLVESGGGLVQPGRSLRLSCAASGFTFDDYAMHWVRQAPGKGLEWVSGISWNSGSIGYADSVKGRFTISRDNAKNSLYLQMNSLRAEDTALYYCAKGRYVDIVATINDAFDIWGQGTMVTVSS | binds |  |
| anti-CD123 scFv-C33 (scFv, also called C33 scFv) scFv: DIRLTQSPSSLSASVGDTITITCRASQDISSWIAWYQQKPGTAPRLLIYAASSLQSGVPSRFSGSGSGTDFTLTINSLHPEDFATYYCQQGSTFPLAFGGGTKVEIKGGGGSGGGGSGGGGSQVQLVQSGAEVKKPGSSVKVSCKASGGTFSSYAISWVRQAPGQGLEWMGGIIPIFGTANYAQKFQGRVTITADESTSTAYMELSSLRSEDTAVYYCARGLDNWNDVGWFDPWGQGTLVTVSS | binds |  |
| anti-CD123 scFv-C30 (scFv, also called C30 scFv) scFv: AIRLTQSPSSLSASVGDRVTITCQASQNINNYLNWYQQKSGKAPKLLIYDASNLEAGVPSRFSGSASGTDFTFTISSLQPEDIATYYCQQNDNLPLTFGQGTRLEIKGGGGSGGGGSGGGGSEVQLVESGGGVVRPGGSLRLSCAASGFTFGDYGMSWVRQAPGKGLEWVSGINWNGGSTGYADSVKGRFTISRDNAKNSLYLQMNSLRAEDTALYYCARDRAPDYGDYLQVGTTDYWGQGTLVTVSS | binds |  |
| anti-CD123 scFv-C14 (scFv, also called C14 scFv) scFv: DIRMTQSPSSLSASVGDRVTITCQASQDITNYLNWYHQKPGKAPKLLIYDASNLETGVPSRFSGGGSGTDFTFTISSLQSEDIGTYYCQQYDDLPLTFGGGTKVEIKGGGGSGGGGSGGGGSQVQLQESGPGLVKPSETLSLTCTVSGGSISSSSHYWGWIRQPPGKGLEWIGSIYYSGSTYYNPSLKSRVTISVDTSKNQFSLKLSSVTAADTAVYYCARRVWVWPTYGMDVWGQGTTVTVSS | binds |  |
| anti-CD123 scFv-C11 (scFv, also called C11 scFv; C11 CAR) scFv: QSVVTQPPSASGTPGQRVTISCSGSSSNIGSNYVYWYQQLPGTAPKLLIYRNNQRPSGVPDRFSGSKSGTSASLAISGLRSEDEADYYCAAWDDSLSGYVFGTGTKLTVLGGGGSGGGGSGGGGSEVQLVESGGGLVQPGRSLRLSCTASGFTFGDYAMSWVRQAPGKGLEWVGFIRSKAYGGTTEYAASVKGRFTISRDDSKSIAYLQMNSLKTEDTAVYYCTRDIGYYGSGSYSPFDYWGQGTLVTVSS | binds |  |
| anti-CD123 scFv-C29 (scFv, also called C29 scFv) scFv: QPVLTQPPSASGTPGQRVTISCSGSSSNIGSNYVYWYQQLPGTAPKLLIYRNNQRPSGVPDRFSGSKSGTSASLAISGLRSEDEADYYCAAWDDSLSGYVFGTGTKVTVLGGGGSGGGGSGGGGSEVHLVESGGGLVQPGRSLRLSCTASGFTFGDYAMSWVRQAPGKGLEWVGFIRSKAYGGTTEYAASVKGRFTISRDDSKSIAYLQMNSLKTEDTAVYYCTRDIGYYGSGSYSPFDYWGQGTLVTVSS | binds |  |
| anti-CD123 scFv-C19 (scFv, also called C19 scFv) scFv: DIRMTQSPSSLSASVGDRVTITCRASQDIRHDLGWYQQKPGKAPSLLMYATSTLQSGVPSRFSGSGSGTHFTLTISSLKPEDSATYYCLQDGDYPLTFGGGTKLEIKGGGGSGGGGSGGGGSQVQLVQSGGGVVQPGRSLRLSCAASGFTFSSYGMHWVRQAPGKGLEWVAVISYDGSNKYYADSVKGRFTISRDNSKNTLYLQMNSLRAEDTAVYYCAKDPSLIQYYYYGMDVWGQGTMVTVSS | binds |  |
| anti-CD123 scFv-C32 (scFv, also called C32 scFv) scFv: QSVVTQPPSASGTPGQRVTISCSGSSSNIEGNTVSWYQQFPGAAPKLLIYSNSYRASGVPDRFSGSKSGTSASLAISELQSEDEADYYCSAWDDSLNGPVFGGGTKVTVLGGGGSGGGGSGGGGSEVQLVESGGGLVQPGGSLRLSCAASGFTFTSYAMNWVRQAPGKGLEWVSDISSSSSYIYYADSVKGRFTISRDNAKNSLYLQMNSLRAEDTAVYYCARDLYSGYDYGYYYGMDVWGQGTTVTVSS | binds |  |
| anti-CD123 scFv-C24 (scFv, also called C24 scFv) scFv: DIQMTQSPSSLSASVGDRVTITCRASQSISSYLNWYQQKPGKAPKLLIHAASSLQSGVPSKFSGSGSGTDFTLTISSLQPEDFATYYCLQYKTYPYTFGPGTKVEIKGGGGSGGGGSGGGGSQVQLVQSGAEVKKPGSSVKVSCKASGGTFSSYAISWVRQAPGQGLEWMGGIIPIFGTANYAQKFQGRVTITADESTSTAYMELSSLRSEDTAVYYCARDSPSGSTNYYYYYMDVWGKGTTVTVSS | binds |  |
